Laboratory results published in US20220396632A1 (VERSEAU THERAPEUTICS, published 2022).
Residue numbers refer to the chain shown, from its start. Non-standard residues stand in square brackets, D forms with d. No end group written: not given here. *: point of attachment. Biotin = O=C1N[C@H]2[C@H](CS[C@H]2CCCCC(=O)*)N1; sY = N[C@@H](Cc1ccc(OS(=O)(=O)O)cc1)C(=O)O

B1: 03B03 (antibody, IgG4, V domains shown)
VH: EVQLVQSGGGLVQPGGSLRLSCAATGFTVSRNYMTWVREAPGKGLEWVAGIYKSGTTSYTESVKGRFTISRDNSKNTLYLEMSRLRAEDTAVYYCAKSTSTWGQGTQVTVSS
VL: DIVMTQSPLSLPVTLGQPASISCRASQSPGYSDGNTYLNWFQQRPGQSPRRLIYKVSNRDPGVPDRFSGSGSGTDFTLKISRVEAEDVGVYYCMQATHWPSFGQGTRLEIK
B2: 03D01 (antibody, IgG4, V domains shown)
VH: B1 VH with T60I
VL: DVVMTQSPVSLPVTLGQPASISCRSSRNLLYSNGNTYLNWFHQRPGQSPRRLIYKVSNQDSGVPDRFSGSGSGTDFTLKISRVEAEDVGVYYCMQGTHWPTTFGQGTRLEIK
B3: 08C10 (antibody, IgG4, V domains shown)
VH: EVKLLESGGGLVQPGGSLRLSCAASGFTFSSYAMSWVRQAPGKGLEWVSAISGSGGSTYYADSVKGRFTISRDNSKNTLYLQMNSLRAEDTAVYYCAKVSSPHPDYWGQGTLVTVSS
VL: LPVLTQPSSLSASPGASASLTCTLRSGLNVGTYRMYWYQQRPGSPPRYLLRYKSNSDKQQGSGVPSRFSGSKDASANAGILLISGLQSEDEADYYCLIWHNSAWVFGGGTKLTVL
B4: 10B03 (antibody, IgG4, V domains shown)
VH: EVKLLESGGDLVQPGGSLRLSCAASGLTFSNYAMSWVRQAPGKGLEWVSAISGSGDNTYYADSVKGRFTISRDNSKNTLYLQMNSLRADDTAVYFCAKRDSWGQGTLVTVSS
VL: QAVLTQPPSASGTPGQRVTISCSGSTSNIGSRDVYWYQHLPGTAPKLVIYRNDQRPSGVPDRFSGSKSGTSASLAISGLRSEDDADYYCAVWDNSLRGRVFGGGTKLTVL

Columns and labels:
[1] = molecular target: T1, Biotin PSGL-1(42-62) peptide, unmodified (human, C-terminal Lys-biotin); experiment: ELISA, immobilized biotin peptide
T1 construct: Residues 42-62 followed by GGGK-biotin; also called WT; wild-type
T1 peptide: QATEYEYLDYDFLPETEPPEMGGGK
Description: (§1) A typical ELISA was performed by coating high binding half-well plates (Corning Cat. #3690) with 3 ug/mL/25 ul per well of biotinylated N-terminal PSGL-1 peptides, which incorporated residues 42 to 62 of the protein, in PBS, pH 7.4, overnight at 4° C. The peptide was unmodified or contained sulfated tyrosine at all 3 tyrosine positions (46, 48, and 51) or at one position (tyr51) (Table 7).
(§2) PSGL-1 protein or peptide served as a positive control. […] […] […] For each antibody, duplicate values were averaged and average assay background was subtracted.

[2] = molecular target: T2, Biotin Y46,48,51(SO3) PSGL-1(42-62) peptide (human, sulfotyrosine at Y46, Y48 and Y51; C-terminal Lys-biotin); experiment: ELISA, immobilized biotin peptide
T2 construct: also called fully sulfated N-terminal PSGL-1 peptide
T2 peptide: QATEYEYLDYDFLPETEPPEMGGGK
Description: as §1, §2

[3] = molecular target: T3, Scrambled Y42,52,63(SO3) PSGL-1(42-62) biotin peptide (sulfotyrosine at peptide positions 1, 11 and 22; C-terminal Lys-biotin); experiment: ELISA, immobilized biotin peptide
T3 peptide: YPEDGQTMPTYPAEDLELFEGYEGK
Description: as §1, §2

[4] = molecular target: T4, Cynomolgus PSGL-1(ECD)-hFc1 (cynomolgus macaque); experiment: ELISA, 20 nM mAb on plate cyno PSGL-1(ECD)-Fc
T4 construct: also called Cyno PSGL1-Fc; Cyno PSGL-1(ECD)-Fc
Description: Antibody binding to plate-immobilized cyno PSGL-1(ECD) was determined either at one concentration (20 nM) or by generating full antibody binding curves (0.003-200 nM). A typical ELISA was performed by overnight coating at 4° C. with 3 ug/mL/25 ul per well of recombinant cyno PSGL-1(ECD) protein in PBS, pH 7.4, in high binding half-well plates (Corning Cat. #3690). […] Anti-PSGL-1 IgG in assay buffer (blocking buffer containing 0.05% tween 20) was added into test and control wells (20 nM/25 ul/well) and the plate incubated for 45 min at 37° C. […] The plate was incubated for 45 min at 37° C., and mAb bound to plate-immobilized target determined at A450 nm using HRP substrate (3,3′,5,5′-tetramethylbenzidine (TMB)). For each antibody, duplicate values were averaged and assay background subtracted.

[5] = molecular target: T5, Sulfotyr fibrinogen γ peptide (not fully specified; Y8 and Y12 sulfated (SO3); C-terminal biotin); experiment: ELISA, 50 nM mAb
T5 construct: also called Fibrinogen gamma peptide; human sulfotyrosinylated fibrinogen peptide
T5 peptide: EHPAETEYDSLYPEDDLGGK
Description: (§3) Recombinant PSGL-1-hFc1 chimera protein consisting of PSGL-1's extracellular domain (ECD) served as a positive control. […] Primary antibody was added (25 ul per well) in duplicate at 50 nM in assay buffer (blocking buffer containing 0.05% Tween®20) into test and control (just blocked) wells and the plate incubated for 45 min at 37° C.

[6] = molecular target: T6, Human complement C4 protein (Millipore Sigma, Cat. 204886) (human, UniProt P0C0L4 20-675; P0C0L4 680-1446; P0C0L4 1454-1744, limits assumed, natural sulfotyrosines); experiment: ELISA, 50 nM mAb
T6 construct: mature
Description: as §3

[7] = molecular target: T7, Sulfotyrosine CCR2b biotin peptide (human); experiment: ELISA, 50 nM mAb
T7 construct: also called CCR2b peptide
T7 peptide: TTFFD[sY]D[sY]GAPSHGGK(Biotin)
Description: as §3

SulfoCCK biotin peptide = molecular target: T8, SulfoCCK biotin peptide (human); experiment: ELISA, 50 nM mAb
T8 construct: also called sulfotyrosine CCK peptide
T8 peptide: SHRISDRD[sY]MGWMDFGGK(Biotin)
Description: as §3

SulfoTyr C4 peptide = molecular target: T9, SulfoTyr C4 peptide (not fully specified; Y4, Y7 and Y9 sulfated (SO3); C-terminal biotin); experiment: ELISA, 50 nM mAb
T9 construct: also called C4 alpha chain peptide; human sulfotyrosinylated C4 peptide
T9 peptide: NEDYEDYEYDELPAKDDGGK
Description: as §3

[8] = molecular target: T10, Human fibrinogen protein (ThermoFisher, RP-43142) (human, UniProt P02671 20-629; P02675 31-491; P02679 27-453, limits assumed, natural sulfotyrosines); experiment: ELISA, 50 nM mAb
T10 construct: mature; Native dimer with 3 pairs of non-identical chains; also called gamma-fibrinogen; γ fibrinogen protein
T10 sequence (looked up) 1: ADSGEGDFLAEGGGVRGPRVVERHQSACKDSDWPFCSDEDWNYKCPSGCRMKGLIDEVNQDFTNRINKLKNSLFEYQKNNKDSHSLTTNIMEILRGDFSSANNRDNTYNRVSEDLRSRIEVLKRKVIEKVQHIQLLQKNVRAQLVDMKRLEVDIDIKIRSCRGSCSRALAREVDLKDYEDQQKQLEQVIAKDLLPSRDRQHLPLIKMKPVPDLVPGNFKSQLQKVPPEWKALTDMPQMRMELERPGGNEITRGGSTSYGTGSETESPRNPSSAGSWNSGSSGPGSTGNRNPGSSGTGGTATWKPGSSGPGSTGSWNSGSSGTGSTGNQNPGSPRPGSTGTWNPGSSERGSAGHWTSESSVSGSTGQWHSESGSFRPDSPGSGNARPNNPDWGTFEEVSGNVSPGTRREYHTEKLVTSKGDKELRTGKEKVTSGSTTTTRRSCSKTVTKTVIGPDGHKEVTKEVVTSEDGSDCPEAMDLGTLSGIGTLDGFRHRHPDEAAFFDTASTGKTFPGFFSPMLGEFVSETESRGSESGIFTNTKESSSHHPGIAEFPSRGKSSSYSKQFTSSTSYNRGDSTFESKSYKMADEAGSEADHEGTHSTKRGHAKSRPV
T10 sequence (looked up) 2: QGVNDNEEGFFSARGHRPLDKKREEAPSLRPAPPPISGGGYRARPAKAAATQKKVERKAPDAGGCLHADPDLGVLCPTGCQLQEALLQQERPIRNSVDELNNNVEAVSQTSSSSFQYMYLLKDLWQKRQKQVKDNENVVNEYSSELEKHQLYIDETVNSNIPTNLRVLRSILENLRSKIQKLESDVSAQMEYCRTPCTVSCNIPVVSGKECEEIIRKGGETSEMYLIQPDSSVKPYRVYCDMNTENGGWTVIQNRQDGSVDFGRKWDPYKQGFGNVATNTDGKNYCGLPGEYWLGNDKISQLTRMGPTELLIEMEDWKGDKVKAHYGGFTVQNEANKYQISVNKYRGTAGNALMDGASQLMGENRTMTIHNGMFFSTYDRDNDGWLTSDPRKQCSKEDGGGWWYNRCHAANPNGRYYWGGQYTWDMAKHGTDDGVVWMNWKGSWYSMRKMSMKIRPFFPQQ
T10 sequence (looked up) 3: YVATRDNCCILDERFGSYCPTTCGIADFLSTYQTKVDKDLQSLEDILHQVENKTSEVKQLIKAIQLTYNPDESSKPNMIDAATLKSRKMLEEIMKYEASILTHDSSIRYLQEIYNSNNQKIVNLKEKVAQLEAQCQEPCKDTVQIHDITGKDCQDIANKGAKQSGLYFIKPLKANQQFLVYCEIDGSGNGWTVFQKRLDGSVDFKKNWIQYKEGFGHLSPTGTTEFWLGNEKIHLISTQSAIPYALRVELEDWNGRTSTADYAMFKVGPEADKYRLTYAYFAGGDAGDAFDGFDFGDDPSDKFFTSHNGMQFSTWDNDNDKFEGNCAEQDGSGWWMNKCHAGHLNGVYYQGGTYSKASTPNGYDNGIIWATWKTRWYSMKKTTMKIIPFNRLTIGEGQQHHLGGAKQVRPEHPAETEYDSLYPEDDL
Description: as §3

[9] = molecular target: T11, Recombinant human PSGL-1(ECD)-hFc1 (R&D Systems, Cat. 3345-PS) (human, UniProt Q14242 42-305); experiment: ELISA, 50 nM mAb
T11 construct: Bought; Gln42-Val295 counted on AAC50061; also called PSGL-1-Fc; PSGL-1-hFc1 chimera; not shown: human IgG1 Fc, Pro100-Lys330
T11 sequence: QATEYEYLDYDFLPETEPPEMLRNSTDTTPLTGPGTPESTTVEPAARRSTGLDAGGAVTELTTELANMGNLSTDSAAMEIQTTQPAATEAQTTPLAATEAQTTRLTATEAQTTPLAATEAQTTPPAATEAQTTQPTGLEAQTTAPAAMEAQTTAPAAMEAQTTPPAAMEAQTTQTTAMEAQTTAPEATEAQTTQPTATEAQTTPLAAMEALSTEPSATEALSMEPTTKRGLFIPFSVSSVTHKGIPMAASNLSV
Description: as §3

T6 sequence (P0C0L4 20-675 limits assumed, form in doubt, chain 1 of 3): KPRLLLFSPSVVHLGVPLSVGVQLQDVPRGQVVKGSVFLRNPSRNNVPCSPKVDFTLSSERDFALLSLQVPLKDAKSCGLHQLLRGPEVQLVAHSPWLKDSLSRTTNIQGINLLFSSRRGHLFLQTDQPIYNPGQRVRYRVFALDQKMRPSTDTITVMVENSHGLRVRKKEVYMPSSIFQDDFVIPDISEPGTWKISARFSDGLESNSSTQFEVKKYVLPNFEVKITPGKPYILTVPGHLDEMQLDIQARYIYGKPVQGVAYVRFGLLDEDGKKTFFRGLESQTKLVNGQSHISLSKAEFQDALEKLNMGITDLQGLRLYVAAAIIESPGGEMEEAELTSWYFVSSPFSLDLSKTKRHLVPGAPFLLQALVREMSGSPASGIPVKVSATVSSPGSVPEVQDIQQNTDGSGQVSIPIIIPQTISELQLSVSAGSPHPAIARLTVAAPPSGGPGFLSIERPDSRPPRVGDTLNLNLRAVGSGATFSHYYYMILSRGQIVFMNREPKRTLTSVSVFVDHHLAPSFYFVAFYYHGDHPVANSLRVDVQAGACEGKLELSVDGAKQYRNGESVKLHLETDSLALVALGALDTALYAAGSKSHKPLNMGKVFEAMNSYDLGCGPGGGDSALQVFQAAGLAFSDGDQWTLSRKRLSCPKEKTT
T6 sequence (P0C0L4 680-1446 limits assumed, form in doubt, chain 2 of 3): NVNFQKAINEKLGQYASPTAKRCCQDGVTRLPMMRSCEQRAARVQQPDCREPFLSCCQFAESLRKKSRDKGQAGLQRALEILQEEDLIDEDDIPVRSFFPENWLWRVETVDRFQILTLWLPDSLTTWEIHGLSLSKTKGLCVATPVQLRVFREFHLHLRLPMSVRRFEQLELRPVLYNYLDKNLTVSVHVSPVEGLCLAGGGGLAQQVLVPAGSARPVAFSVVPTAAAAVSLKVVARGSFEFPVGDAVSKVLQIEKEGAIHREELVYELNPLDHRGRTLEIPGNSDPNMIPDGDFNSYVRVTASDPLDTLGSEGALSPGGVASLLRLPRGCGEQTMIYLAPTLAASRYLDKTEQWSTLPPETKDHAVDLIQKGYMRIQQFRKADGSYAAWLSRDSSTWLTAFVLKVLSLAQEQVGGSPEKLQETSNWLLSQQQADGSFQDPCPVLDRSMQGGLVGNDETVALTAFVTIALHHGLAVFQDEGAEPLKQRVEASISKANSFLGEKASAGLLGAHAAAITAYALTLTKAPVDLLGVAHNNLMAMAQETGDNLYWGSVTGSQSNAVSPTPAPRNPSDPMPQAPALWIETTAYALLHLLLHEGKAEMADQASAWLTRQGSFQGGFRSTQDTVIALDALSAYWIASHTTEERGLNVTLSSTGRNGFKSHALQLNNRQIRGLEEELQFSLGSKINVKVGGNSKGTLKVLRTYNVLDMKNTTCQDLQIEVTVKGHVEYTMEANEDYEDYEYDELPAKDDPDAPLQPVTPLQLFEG
T6 sequence (P0C0L4 1454-1744 limits assumed, form in doubt, chain 3 of 3): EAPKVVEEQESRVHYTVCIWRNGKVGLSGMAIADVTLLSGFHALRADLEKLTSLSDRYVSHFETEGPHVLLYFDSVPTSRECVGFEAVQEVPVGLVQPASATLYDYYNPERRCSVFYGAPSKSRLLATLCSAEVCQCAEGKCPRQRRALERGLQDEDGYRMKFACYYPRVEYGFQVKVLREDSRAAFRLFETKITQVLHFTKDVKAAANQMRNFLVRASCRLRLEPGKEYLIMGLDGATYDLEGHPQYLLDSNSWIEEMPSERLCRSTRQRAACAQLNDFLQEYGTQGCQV

| Binder | A450nm, 20 nM mAb [1] [A450nm] | A450nm, 20 nM mAb [2] [A450nm] | A450nm, 20 nM mAb [3] [A450nm] | binding result [3] | A450nm [4] [A450 nm] | binding normalized to PSGL-1 [5] | binding normalized to PSGL-1 [6] | binding normalized to PSGL-1 [7] | binding normalized to PSGL-1 (SulfoCCK biotin peptide) | binding normalized to PSGL-1 (SulfoTyr C4 peptide) | binding normalized to PSGL-1 [8] | binding result [8] | EC50 [1] [nM] | EC50 [2] [nM] | A450nm [9] [A450nm] |
| --- | --- | --- | --- | --- | --- | --- | --- | --- | --- | --- | --- | --- | --- | --- | --- |
| B1 | 2.21 | 2.5 | 0.04 | no binding (tested: 20 nM) | 0.45 | 1.01 | 0.94 | 0.89 | 0.98 | 1 | 0.27 | – | – | – | – |
| B2 | 2.52 | 2.67 | – | – | 0.71 | 1.17 | 1.07 | 0.94 | 0.94 | 1.13 | -0.2 | no binding (tested: 50 nM) | – | – | – |
| B3 | – | 2.57 | – | no binding (tested: 20 nM) | 0.31 | 1.18 | 1.22 | 1.27 | 1.02 | 1.14 | 0.46 | – | ~500 | 0.33 | 2.3 |
| B4 | – | 2.68 | – | – | 0.68 | 1.18 | 1.16 | 0.98 | 0.56 | 1.08 | 0.68 | – | – | – | 2.18 |
